Data: patent US20120214174

Assays:
[1] = target: T1, MUC1-a peptide (AHGVTSAPDTR)
T1 chain: AHGVTSAPDTR

[2] = target: T2, MUC1-b peptide (RPAPGSTAPPA)
T2 chain: RPAPGSTAPPA

[3] = target: endogenous MUC1 protein (Mucin-1)

B1: recombinant wild-type GALNT6 protein without a signal peptide (codons 35-622), His-tagged (protein)
chain: EEATEKPWLKSLVSRKDHVLDLMLEAMNNLRDSMPKLQIRAPEAQQTLFSINQSCLPGFYTPAELKPFWERPPQDPNAPGADGKAFQKSKWTPLETQEKEEGYKKHCFNAFASDRISLQRSLGPDTRPPECVDQKFRRCPPLATTSVIIVFHNEAWSTLLRTVYSVLHTTPAILLKEIILVDDASTEEHLKEKLEQYVKQLQVVRVVRQEERKGLITARLLGASVAQAEVLTFLDAHCECFHGWLEPLLARIAEDKTVVVSPDIVTIDLNTFEFAKPVQRGRVHSRGNFDWSLTFGWETLPPHEKQRRKDETYPIKSPTFAGGLFSISKSYFEHIGTYDNQMEIWGGENVEMSFRVWQCGGQLEIIPCSVVGHVFRTKSPHTFPKGTSVIARNQVRLAEVWMDSYKKIFYRRNLQAAKMAQEKSFGDISERLQLREQLHCHNFSWYLHNVYPEMFVPDLTPTFYGAIKNLGTNQCLDVGENNRGGKPLIMYSCHGLGGNQYFEYTTQRDLRHNIAKQLCLHVSKGALGLGSCHFTGKNSQVPKDEEWELAQDQLIRNSGSGTCLTSQDKKPAMAPCNPSDPHQLWLFV
For B1, the “in vitro GalNAc-transferase assay (HPLC of DNS-labelled peptide)” value (from here on “in vitro GalNAc-transferase assay”) [1] was “WT-GALNT6 rapidly O-glycosylated MUC1 peptides in 10-min incubation” and the “in vitro GalNAc-transferase assay” value [2] was “WT-GALNT6 rapidly O-glycosylated MUC1 peptides in 10-min incubation”.

B2: recombinant GALNT6 H271D mutant protein (protein)
chain: EEATEKPWLKSLVSRKDHVLDLMLEAMNNLRDSMPKLQIRAPEAQQTLFSINQSCLPGFYTPAELKPFWERPPQDPNAPGADGKAFQKSKWTPLETQEKEEGYKKHCFNAFASDRISLQRSLGPDTRPPECVDQKFRRCPPLATTSVIIVFHNEAWSTLLRTVYSVLHTTPAILLKEIILVDDASTEEHLKEKLEQYVKQLQVVRVVRQEERKGLITARLLGASVAQAEVLTFLDADCECFHGWLEPLLARIAEDKTVVVSPDIVTIDLNTFEFAKPVQRGRVHSRGNFDWSLTFGWETLPPHEKQRRKDETYPIKSPTFAGGLFSISKSYFEHIGTYDNQMEIWGGENVEMSFRVWQCGGQLEIIPCSVVGHVFRTKSPHTFPKGTSVIARNQVRLAEVWMDSYKKIFYRRNLQAAKMAQEKSFGDISERLQLREQLHCHNFSWYLHNVYPEMFVPDLTPTFYGAIKNLGTNQCLDVGENNRGGKPLIMYSCHGLGGNQYFEYTTQRDLRHNIAKQLCLHVSKGALGLGSCHFTGKNSQVPKDEEWELAQDQLIRNSGSGTCLTSQDKKPAMAPCNPSDPHQLWLFV
For B2, the “in vitro GalNAc-transferase assay” value [1] was “mutant-GALNT6 proteins (H271D and E382Q) could not transfer GalNAc to MUC1 peptides even by 16 hours incubation” and the “in vitro GalNAc-transferase assay” value [2] was “mutant-GALNT6 proteins (H271D and E382Q) could not transfer GalNAc to MUC1 peptides even by 16 hours incubation”.

B3: recombinant GALNT6 E382Q mutant protein (protein)
chain: EEATEKPWLKSLVSRKDHVLDLMLEAMNNLRDSMPKLQIRAPEAQQTLFSINQSCLPGFYTPAELKPFWERPPQDPNAPGADGKAFQKSKWTPLETQEKEEGYKKHCFNAFASDRISLQRSLGPDTRPPECVDQKFRRCPPLATTSVIIVFHNEAWSTLLRTVYSVLHTTPAILLKEIILVDDASTEEHLKEKLEQYVKQLQVVRVVRQEERKGLITARLLGASVAQAEVLTFLDAHCECFHGWLEPLLARIAEDKTVVVSPDIVTIDLNTFEFAKPVQRGRVHSRGNFDWSLTFGWETLPPHEKQRRKDETYPIKSPTFAGGLFSISKSYFEHIGTYDNQMEIWGGQNVEMSFRVWQCGGQLEIIPCSVVGHVFRTKSPHTFPKGTSVIARNQVRLAEVWMDSYKKIFYRRNLQAAKMAQEKSFGDISERLQLREQLHCHNFSWYLHNVYPEMFVPDLTPTFYGAIKNLGTNQCLDVGENNRGGKPLIMYSCHGLGGNQYFEYTTQRDLRHNIAKQLCLHVSKGALGLGSCHFTGKNSQVPKDEEWELAQDQLIRNSGSGTCLTSQDKKPAMAPCNPSDPHQLWLFV
For B3, the “in vitro GalNAc-transferase assay” value [1] was “mutant-GALNT6 proteins (H271D and E382Q) could not transfer GalNAc to MUC1 peptides even by 16 hours incubation” and the “in vitro GalNAc-transferase assay” value [2] was “mutant-GALNT6 proteins (H271D and E382Q) could not transfer GalNAc to MUC1 peptides even by 16 hours incubation”.

B4: HA-tagged wild-type GALNT6 protein stably expressed in HeLa cells (pCAGGS-GALNT6-HA) (protein)
chain: MRLLRRRHMPLRLAMVGCAFVLFLFLLHRDVSSREEATEKPWLKSLVSRKDHVLDLMLEAMNNLRDSMPKLQIRAPEAQQTLFSINQSCLPGFYTPAELKPFWERPPQDPNAPGADGKAFQKSKWTPLETQEKEEGYKKHCFNAFASDRISLQRSLGPDTRPPECVDQKFRRCPPLATTSVIIVFHNEAWSTLLRTVYSVLHTTPAILLKEIILVDDASTEEHLKEKLEQYVKQLQVVRVVRQEERKGLITARLLGASVAQAEVLTFLDAHCECFHGWLEPLLARIAEDKTVVVSPDIVTIDLNTFEFAKPVQRGRVHSRGNFDWSLTFGWETLPPHEKQRRKDETYPIKSPTFAGGLFSISKSYFEHIGTYDNQMEIWGGENVEMSFRVWQCGGQLEIIPCSVVGHVFRTKSPHTFPKGTSVIARNQVRLAEVWMDSYKKIFYRRNLQAAKMAQEKSFGDISERLQLREQLHCHNFSWYLHNVYPEMFVPDLTPTFYGAIKNLGTNQCLDVGENNRGGKPLIMYSCHGLGGNQYFEYTTQRDLRHNIAKQLCLHVSKGALGLGSCHFTGKNSQVPKDEEWELAQDQLIRNSGSGTCLTSQDKKPAMAPCNPSDPHQLWLFV
B4 was tested, and the “Western blot of MUC1 in stable HeLa transformants (band shift by O-glycosylation)” value [3] was “In the cells with WT-GALNT6 (clone no. 101, 110 and 304), the highest molecular weight of MUC1 protein (>250 kDa) was observed”.

B5: HA-tagged GALNT6 H271D mutant stably expressed in HeLa cells (pCAGGS-GALNT6 (H271D)-HA) (protein)
chain: MRLLRRRHMPLRLAMVGCAFVLFLFLLHRDVSSREEATEKPWLKSLVSRKDHVLDLMLEAMNNLRDSMPKLQIRAPEAQQTLFSINQSCLPGFYTPAELKPFWERPPQDPNAPGADGKAFQKSKWTPLETQEKEEGYKKHCFNAFASDRISLQRSLGPDTRPPECVDQKFRRCPPLATTSVIIVFHNEAWSTLLRTVYSVLHTTPAILLKEIILVDDASTEEHLKEKLEQYVKQLQVVRVVRQEERKGLITARLLGASVAQAEVLTFLDADCECFHGWLEPLLARIAEDKTVVVSPDIVTIDLNTFEFAKPVQRGRVHSRGNFDWSLTFGWETLPPHEKQRRKDETYPIKSPTFAGGLFSISKSYFEHIGTYDNQMEIWGGENVEMSFRVWQCGGQLEIIPCSVVGHVFRTKSPHTFPKGTSVIARNQVRLAEVWMDSYKKIFYRRNLQAAKMAQEKSFGDISERLQLREQLHCHNFSWYLHNVYPEMFVPDLTPTFYGAIKNLGTNQCLDVGENNRGGKPLIMYSCHGLGGNQYFEYTTQRDLRHNIAKQLCLHVSKGALGLGSCHFTGKNSQVPKDEEWELAQDQLIRNSGSGTCLTSQDKKPAMAPCNPSDPHQLWLFV
B5 was tested, and the “Western blot of MUC1 in stable HeLa transformants (band shift by O-glycosylation)” value [3] was “in those with mock (clone no. 001, 003 and 006) or H271D (clone no. 102, 212 and 114) the shifted band was not observed”.
